Reference: publication PMC8844826

Tests used:
[1] = target: full length PSD-95 (FL-PSD-95, 1-724) (human) (UniProt P78352); assay: fluorescence polarisation; competition at pH 6.4: PSD-95 (150 nM) and fluorescent tracer, increasing NA-1; apparent
[2] = target: full length PSD-95 (FL-PSD-95, 1-724) (human) (UniProt P78352); assay: fluorescence polarisation; competition at pH 7.4: PSD-95 (150 nM) and fluorescent tracer, increasing NA-1; apparent
[3] = target: full length PSD-95 (FL-PSD-95, 1-724) (human) (UniProt P78352); assay: fluorescence polarisation; competition at pH 8.4: PSD-95 (150 nM) and fluorescent tracer, increasing NA-1; apparent
[4] = target: full length PSD-95 (FL-PSD-95, 1-724) (human) (UniProt P78352); assay: fluorescence polarisation; competition at pH 9.4: PSD-95 (150 nM) and fluorescent tracer, increasing NA-1; apparent

Chain of full length PSD-95 (FL-PSD-95, 1-724) (human) (P78352 whole entry): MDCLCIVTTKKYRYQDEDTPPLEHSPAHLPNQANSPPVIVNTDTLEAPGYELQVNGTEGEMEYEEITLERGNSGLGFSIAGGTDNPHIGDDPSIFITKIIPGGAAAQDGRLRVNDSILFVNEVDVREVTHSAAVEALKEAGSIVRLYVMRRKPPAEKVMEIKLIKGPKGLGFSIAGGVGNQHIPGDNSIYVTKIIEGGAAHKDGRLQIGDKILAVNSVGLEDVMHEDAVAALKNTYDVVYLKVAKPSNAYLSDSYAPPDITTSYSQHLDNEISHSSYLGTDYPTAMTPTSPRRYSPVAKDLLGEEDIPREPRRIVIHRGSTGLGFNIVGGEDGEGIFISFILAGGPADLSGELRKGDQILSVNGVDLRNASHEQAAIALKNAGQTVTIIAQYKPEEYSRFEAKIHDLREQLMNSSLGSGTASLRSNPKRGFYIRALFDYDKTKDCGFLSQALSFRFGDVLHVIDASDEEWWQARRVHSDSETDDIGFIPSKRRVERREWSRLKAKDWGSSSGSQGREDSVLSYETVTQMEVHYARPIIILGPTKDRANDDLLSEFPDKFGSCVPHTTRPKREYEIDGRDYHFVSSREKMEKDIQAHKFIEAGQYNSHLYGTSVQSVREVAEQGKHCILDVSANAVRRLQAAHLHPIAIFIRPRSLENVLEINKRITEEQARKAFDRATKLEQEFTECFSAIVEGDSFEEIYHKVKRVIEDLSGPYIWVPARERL

Substance “NA-1 (nerinetide): TAT peptide fused to C-terminal residues of the GluN2B NMDAR subunit” has a Ki [1] of 7.2 µM, a Ki [2] of 4.5 µM and a Ki [3] of 2.6 µM. For the same substance, the Ki [4] was 4.1 µM.
